Results taken from the supplement of paper PMC10567573.
± gives the standard deviation.

Test: protein stability index of a GFP-peptide fusion (GPS, HEK-293T) (PSI 1-6); higher = more stable
[1] = treatment: DMSO, c terminus: a fixed tail appended
[2] = treatment: MLN4924 1 uM, 8 h, c terminus: a fixed tail appended
[3] = treatment: DMSO, c terminus: native
[4] = treatment: MLN4924 1 uM, 8 h, c terminus: native
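Note: 24-mer peptide tiles fused after GFP, lentivirally expressed, FACS-sorted into six equal bins by GFP/DsRed ratio, decoded by Illumina sequencing, PSI is the read-weighted mean bin number.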

| Sequence | protein stability index [1] | protein stability index [2] | protein stability index [3] | protein stability index [4] |
| --- | --- | --- | --- | --- |
| QLSPNLDLDPLELIALANRFCLPH [RHOBTB1] | 2.27 ± 0.11 | 2.44 ± 0.11 | – | – |
| QLVEMTGLSPRVIRVWFQNKRCKD [ISL2] | 2.47 ± 0.4 | 2.95 ± 0.43 | – | – |
| QNPAGELEGFQAQGHPPSLFPPKA [ATE1] | 4.66 ± 0.075 | 4.82 ± 0.17 | – | – |
| QPKQLIVDDLKGSLKEDLTQHKFI [SPRY1] | 4.14 ± 0.13 | 4.2 ± 0.22 | – | – |
| QPRDEEEAELELLRQFDLAWQYGP [POLD4] | 4.87 ± 0.34 | 4.54 ± 0.27 | – | – |
| QPVDAIKLNLPDYHKIIKNPMDMG [BRD3] | 3.12 ± 0.35 | 2.92 ± 0.23 | – | – |
| QQKEEEEEMAVVPQGLFRGGKSGE [CHGA] | 5.52 ± 0.28 | 5.63 ± 0.12 | – | – |
| QRKLKPPIVPKIAGDGDTSNFETY [PRKX] | 4.38 ± 0.16 | 4.47 ± 0.12 | – | – |
| QSAYDVADMLKQYFRDLPEPLMTN [DLC1] | 2.67 ± 0.32 | 2.72 ± 0.33 | – | – |
| QSHDDLSNATATPSVRKKAGSFSR [C2CD2L] | 4.75 ± 0.31 | 4.67 ± 0.2 | – | – |
| QSLLGYTPEELHAMLDVKPDADE [ETS1] | – | – | 5.2 ± 0.36 | 5.18 ± 0.32 |
| QSRRTALATSPITVGDLGIVRRRS [YJU2B] | 4.27 ± 0.16 | 4.36 ± 0.25 | – | – |
| QSSCSGPTHTPRPADFSLGSLPGP [VENTX] | 3.83 ± 0.13 | 3.89 ± 0.36 | – | – |
| QTRNGLGKDHEILRRRIENGAKEL [FUT8] | 4.34 ± 0.33 | 4.33 ± 0.1 | – | – |
| QVDSLRPASFPTWGCDLGVVTRVV [BRF1] | 2.66 ± 0.11 | 2.5 ± 0.18 | – | – |
| QVLDEVIPIHGKGNFPTMEVKPKD [TENT5D] | 4.61 ± 0.18 | 4.6 ± 0.24 | – | – |
| QVQQVEVEATVKPELTAALRDIRA [PRPH] | 4.02 ± 0.31 | 4.32 ± 0.18 | – | – |
| QYLAERYKVNTPMLQSFINYCLLF [SLC35F2] | 2.58 ± 0.6 | 2.64 ± 0.53 | – | – |
| QYLALPERAELAASLGLTQTQVKI [DLX1] | 2.95 ± 0.33 | 3.03 ± 0.22 | – | – |
| RADSFKVSYQLADGGEPQSVQVDG [TNXB] | 4.89 ± 0.15 | 5.01 ± 0.22 | – | – |
| RAEGTDIPTVKPLKPRPEPPKKPS [ZC2HC1A] | 5.38 ± 0.18 | 5.4 ± 0.27 | – | – |
| RAPHKESTLPRSGSSGGQQPSGMK [CHCHD6] | 4.96 ± 0.58 | 5.05 ± 0.46 | – | – |
| RAYDLLRAASENSQDALRVVSTSG [IKZF1] | 2.62 ± 0.37 | 2.84 ± 0.31 | – | – |

| Sequence | protein stability index [1] | protein stability index [2] | protein stability index [3] | protein stability index [4] |
| --- | --- | --- | --- | --- |
| RAYFMSDTREEKRFLGEGHHRVQE [CHGB] | 3.87 ± 0.28 | 3.89 ± 0.06 | – | – |
| RDAIEALCRRLNTLNKCAVMKLEI [DLC1] | 2.13 ± 0.49 | 2.54 ± 0.17 | – | – |
| RDHVETELLKEAELIRNIQELLKR [TEKT4] | 2.74 ± 0.16 | 3.01 ± 0.36 | – | – |
| RDLKPENILVTSGGTVKLADFGLA [CDK4] | 3.31 ± 0.44 | 3.33 ± 0.27 | – | – |
| RDRFKSFQRRNMIEPRERAKFKRK [NOP53] | 4.11 ± 0.47 | 4.54 ± 0.35 | – | – |
| RDSLSHLVPALRLPGRKLVSSAVS [INTS4] | 3.04 ± 0.12 | 3.21 ± 0.24 | – | – |
| RDYVRLFGIKCAKCQVGFSSSDLV [ISL2] | 2.51 ± 0.52 | 2.25 ± 0.23 | – | – |
| REEEERERLQKEEEKRRREEEERL [ACBD3] | 5.5 ± 0.35 | 5.74 ± 0.21 | – | – |
| REKPFKCQECGKTFRVSSDLIKHQ [ZNF75A] | 4.73 ± 0.19 | 4.72 ± 0.32 | – | – |
| RFLVGMMNGGMSLVAFVLLNECVG [SLC22A15] | 3.25 ± 0.35 | 2.9 ± 0.38 | – | – |
| RGPLNSDRSDYFAAWGARVFSFGK [TRIM43] | 2.79 ± 0.22 | 2.76 ± 0.22 | – | – |
| RGREAGPPQPMVPLAVENQAGGEG [PBXIP1] | 5.27 ± 0.38 | 5.25 ± 0.16 | – | – |
| RIASRAIDNAADLLIFGKELSAIG [SNX8] | 2.34 ± 0.28 | 2.44 ± 0.38 | – | – |
| RIRSYLREVSSYPSTVGAEAQEEF [DFFB] | 3.33 ± 0.16 | 3.58 ± 0.29 | – | – |
| RITKDNRRHCQACRLKRCVDIGMM [VDR] | 2.42 ± 0.36 | 2.68 ± 0.29 | – | – |
| RLAELLLLETDAGPAASEGAEQPP [GADD45A] | 3.26 ± 0.22 | 3.6 ± 0.56 | – | – |
| RLASYLDKVRALEEANADLEVKIH [KRT15] | 2.33 ± 0.15 | 2.67 ± 0.22 | – | – |
| RLGQRQPPPSEPTQGPEIVPRGAG [DNAJC4] | 4.83 ± 0.15 | 4.84 ± 0.12 | – | – |
| RLNAYRGYCSNQLAAKALLDQKKQ [NET1] | 3.25 ± 0.25 | 3.25 ± 0.26 | – | – |
| RLVNEYVELVNAACNFEPHESFFS [ZER1] | 2.34 ± 0.4 | 2.1 ± 0.48 | – | – |
| RMLFWACSTNKPEGYRVSQALREN [FAF2] | 2.27 ± 0.16 | 2.46 ± 0.18 | – | – |
| RPGATAVPTPLTNVQILLPVGEPV [FCHO1] | 3.4 ± 0.26 | 3.33 ± 0.2 | – | – |
| RPGPSASAASSAAAGEPLECPTCG [RNF208] | 5.3 ± 0.2 | 5.3 ± 0.28 | – | – |

| Sequence | protein stability index [1] | protein stability index [2] | protein stability index [3] | protein stability index [4] |
| --- | --- | --- | --- | --- |
| RPHGIFGPRDPQLVPILIEAARNG [NSDHL] | 2.91 ± 0.34 | 3.04 ± 0.24 | – | – |
| RPHVHKQTEKTTRVRTVLNEKQLH [ISL2] | 4.21 ± 0.098 | 4.39 ± 0.24 | – | – |
| RPPFETTNLKETYRCIREARYTMP [PLK2] | 2.72 ± 0.47 | 2.31 ± 0.26 | – | – |
| RPQSAQSSFPPSPGPSPDVQLATL [AUP1] | 4.34 ± 0.44 | 4.34 ± 0.47 | – | – |
| RPRRRDGPEHATRLNGTAKGERRR [DVL3] | 5.06 ± 0.38 | 5.08 ± 0.42 | – | – |
| RPSFNRTPIPWLSSGEPVDYNVDI [MYOZ1] | 3.57 ± 0.5 | 3.66 ± 0.39 | – | – |
| RQGLKYCLPLTFCIHTGLSQYIAV [FBXO3] | 3.08 ± 0.45 | 2.87 ± 0.52 | – | – |
| RQKEVDFCISLLRERFMECLMIGR [INTS3] | 2.52 ± 0.74 | 2.28 ± 0.13 | – | – |
| RQLLRDFQSRLPYQYLHYALFKAN [P3H4] | 2.49 ± 0.29 | 2.16 ± 0.43 | – | – |
| RREVAKTVFCLVVIFALCWFPLHL [EDNRA] | 2.93 ± 0.19 | 2.53 ± 0.27 | – | – |
| RRHLQFWKSHLRNVQRPLLQAPFL [RHOBTB2] | 2.29 ± 0.38 | 2.21 ± 0.3 | – | – |
| RRHTSMERYDPNIDQWSMLGDMQT [KLHL12] | 3.86 ± 0.27 | 3.82 ± 0.26 | – | – |
| RRKEEEVQQQKLAEERRRQNLQEE [FAF2] | 5.56 ± 0.18 | 5.45 ± 0.37 | – | – |
| RRKPDPPKDENERSTCNVVQDEFL [DLC1] | 5.27 ± 0.1 | 5.33 ± 0.13 | – | – |
| RRPRRVEAERPHSLIGVIRETVL [FAM189A2] | – | – | 3.39 ± 0.12 | 3.42 ± 0.22 |
| RRSPRPDHPGTPPHKTFRKLRLFD [WEE1] | 3.4 ± 0.078 | 3.71 ± 0.34 | – | – |
| RRTLQGLEIELQSQLSMKAGLENT [KRT13] | 3.4 ± 0.24 | 3.34 ± 0.37 | – | – |
| RRVLPCIPSEEWPNPPTLQEAGLS [FAF2] | 3.9 ± 0.38 | 3.79 ± 0.18 | – | – |
| RSHSREPRAERKCPRIAPADSGRY [ELOA2] | 4.093 ± 0.032 | 4.25 ± 0.47 | – | – |
| RSLLGYDPQILQMLKEEHQIILEN [RAD54B] | 2.94 ± 0.19 | 3.11 ± 0.21 | – | – |
| RSSVSRVFDCLKDGMRNKETLEGR [MED27] | 4.27 ± 0.34 | 4.38 ± 0.47 | – | – |
| RTRPRKPIRCGEVLFAVGGWCSGD [KLHL20] | 2.39 ± 0.28 | 2.17 ± 0.33 | – | – |
| RTRRRLSRNRDPGRLILSTIRLRP [PWWP2B] | 4.41 ± 0.45 | 4.32 ± 0.21 | – | – |

| Sequence | protein stability index [1] | protein stability index [2] | protein stability index [3] | protein stability index [4] |
| --- | --- | --- | --- | --- |
| RTYFHEFGHVMHQICAQVSFFFPP [NLN] | 2.43 ± 0.43 | 3.41 ± 0.054 | – | – |
| RVLDGKEAKAVGLISHVLEQNQEG [AUH] | 4.53 ± 0.38 | 4.95 ± 0.088 | – | – |
| RVPSFESFEDDCSQSLCLNKPTMS [ETS2] | 4.6 ± 0.16 | 4.55 ± 0.16 | – | – |
| SAASVYAGAGGSGSRISVSRSTSF [KRT18] | 3.66 ± 0.066 | 3.59 ± 0.28 | – | – |
| SAEINQDLNIQLLKDGYRLDEIPD [FAM219A] | 4.91 ± 0.062 | 5.08 ± 0.18 | – | – |
| SARCVVSFNILVEDRVKLFGIEIE [PCDHGA10] | 2.12 ± 0.68 | 1.95 ± 0.27 | – | – |
| SARFWIPGEPNNAGNNEHCGNIKA [CD207] | 4.03 ± 0.47 | 4.18 ± 0.41 | – | – |
| SCHGYTLPGACNIPANVSNCNWFC [KRT33B] | 2.53 ± 0.52 | 2.42 ± 0.5 | – | – |
| SDAWTYCISKNEWIQFNHPYTEKP [KLHDC2] | 2.34 ± 0.18 | 2.37 ± 0.26 | – | – |
| SDSLLQSWNSQSSLLDVQRVPSFE [ETS2] | 3.92 ± 0.3 | 3.76 ± 0.17 | – | – |
| SEAKSHSSADDASAWSNIQEAPLQ [FAN1] | 5.29 ± 0.31 | 5.04 ± 0.46 | – | – |
| SEEGSWAQTLAYGDMNHEWIGNEW [PPFIA4] | 3.89 ± 0.41 | 3.8 ± 0.28 | – | – |
| SEGEAMEICSEPVAASPAPAGERR [ZNF511] | 5.38 ± 0.28 | 5.22 ± 0.27 | – | – |
| SEGRRVSFGVDEEERVRVLQGVRL [CHCHD6] | 4.38 ± 0.19 | 4.38 ± 0.3 | – | – |
| SELQREMEALAAETNLLLAQKQRL [TEKT4] | 4 ± 0.53 | 4.2 ± 0.13 | – | – |
| SENKIVGIGYNGMPNGCSDDVLPW [DCTD] | 3.46 ± 0.35 | 3.56 ± 0.15 | – | – |
| SESSPSDFSVSLKASGKNKHFKVQ [NCK2] | 4.39 ± 0.18 | 4.33 ± 0.17 | – | – |
| SEVSFEGAYGNLKRLYDKAAKMYH [SMG5] | 2.44 ± 0.29 | 2.23 ± 0.29 | – | – |
| SFFLQIYLIMIFLGLYINFRHLYK [HACD3] | 2.79 ± 0.2 | 2.52 ± 0.041 | – | – |
| SFRENWQRAWVRALNEQACRNGSS [C2CD2L] | 2.7 ± 0.24 | 2.45 ± 0.49 | – | – |
